From US20250332297A1, “DLL3-SPECIFIC BINDING CONSTRUCTS AND THEIR USE IN RADIOTHERAPY” (MOLECULAR PARTNERS AG, priority 2024, published 2025)

T1: Human DLL3-NTD (Homo sapiens, UniProt Q9NYJ7)
T1 construct: comprising only the N-Terminal Domain (NTD, residues 27-189); 6xHis (C); made in house; host or cells: Expi293F cells
T1 sequence (Q9NYJ7 27-189): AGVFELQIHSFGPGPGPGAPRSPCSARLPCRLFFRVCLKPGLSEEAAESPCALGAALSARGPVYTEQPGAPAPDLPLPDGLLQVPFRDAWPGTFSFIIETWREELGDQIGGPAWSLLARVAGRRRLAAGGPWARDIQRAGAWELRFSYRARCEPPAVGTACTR


Key:
[1] = system: SHP-77 lung carcinoma cells; assay: Internalization in SHP-77 cells; type: cell-based, human; conditions: AF488 label with anti-AF488 quencher, 37° C.
Protocol: (§1) Studies were performed to determine whether a half-life extended DLL3-specific ankyrin repeat protein, as described herein, is internalized upon binding to cells expressing DLL3 on their surface. The specific ankyrin repeat protein tested was MAM279 (SEQ ID NO: 11) (with a Glycine-Serine (GS) at its N-terminal end). […] As a comparison, internalization was also tested for Rova antibody. Internalization was investigated on different cell types expressing DLL3 on their surface, namely SHP-77 lung carcinoma cells, NCI-H82 lung carcinoma cells, and hDLL3-expressing MC38 (MC38-hDLL3) colon carcinoma cells. In brief, DARPin and antibody were pre-incubated and labelled with fluorescently labelled detection antibodies (Fab-AF488) and added to 5×10^4 cells/well in a 96-well plate (100 nM DARPin, 10 nM antibody control) and incubated for 1h on ice. Cells were washed once with PBS and then incubated for different timepoints (0 min, 15 min, 30 min, 1 h and/or 4 h) at 37° C. in PBS with 2% FCS. […] Raw fcs files were exported and analyzed using FlowJo software. MFI values of live AF488-positive cells were exported from FlowJo and plotted using GraphPad Prism software. % internalization was determined by normalizing to non-binding control DARPin (for MAM279) or non-binding isotype control IgG (for Rova). […]

[2] = system: NCI-H82 lung carcinoma cells; assay: Internalization in NCI-H82 cells; type: cell-based, human; conditions: AF488 label with anti-AF488 quencher, 37° C.
Protocol: as §1

[3] = system: hDLL3-expressing MC38 (MC38-hDLL3) colon carcinoma cells; assay: Internalization in MC38-hDLL3 cells; type: cell-based; conditions: AF488 label with anti-AF488 quencher, 37° C.
Protocol: as §1

Human DLL3-NTD = molecular target: T1, Human DLL3-NTD; assay: SPR binding to human DLL3-NTD (Example 11); conditions: immobilized biotinylated target, 1:1 Langmuir, Table 14
Protocol: (§2) The truncated human DLL3 construct, comprising only the N-Terminal Domain (NTD, residues 27-189), was designed with a C-terminal 6×His and Avi-tag. Co-expression was carried in Expi293F cells and purification was performed via Ni-NTA affinity chromatography followed by SEC. The final material was monomeric on size exclusion and stored in PBS pH 7.4 at the final concentration of 0.26 mg/ml.
(§3) The binding of 2D ankyrin repeat protein MAM279 as well as of MAM279 conjugated to the chelator DOTAM (the conjugation was performed as described in Example 3) to different target proteins was analyzed by Surface Plasmon Resonance (SPR). Specifically, the proteins analyzed were (i) MAM279 (SEQ ID NO: 11), with a Glycine-Serine (GS) at its N-terminal end and an N-terminal His-tag (SEQ ID NO: 19); and (ii) MAM279 (SEQ ID NO: 11), with a Glycine-Serine (GS) at its N-terminal end and a tag (SEQ ID NO: 10) at its C-terminal end (resulting in GS-MAM279-tag (SEQ ID NO: 15)), conjugated to the chelator DOTAM as described in Example 3.
(§4) A surface plasmon resonance (SPR) assay was used to determine the binding kinetics of the two proteins (i.e. MAM279 with and without conjugation to chelator) to different targets: the Extra-Cellular Domain (ECD) of human DLL3, the ECD of cynomolgus monkey DLL3, the N-Terminal Domain (NTD) only of human DLL3, and the NTD dog DLL3. The data were generated using BioRad ProteOn instrument in SPR running buffer (PBS, pH 7.4 containing 0.005% Tween 20©). […] The chip was coated with biotinylated target to reach a signal intensity of 1516 RU (human ECD), 257 RU (human NTD), 1500 RU (cyno ECD) and 228 RU (dog NTD). All analytes (various concentrations in 3-fold dilutions ranging from 500-6.17 nM) were injected in succession for 240 s (100 μl/min) and dissociation was recorded for 10800 s (100 μl/min). Each injection was followed by a regeneration step with 16 mM H3PO4 for 18 s. […] The obtained SPR traces were used to determine on-rate and off-rate interaction parameters.

Cyno DLL3-ECD = assay: SPR binding to cyno DLL3-ECD (Example 11); parameters: species or system cynomolgus monkey
Text: The DLL3 target protein from cynomolgus macaque (cyno) was produced similarly to the human target protein. It consisted of the extracellular domain of the cyno DLL3 protein (XP_005589253.1, Gene ID:102115332, residues 27 to 466, purchased from Evitria) linked via an Avi-tag (for site-directed biotinylation), followed by a 3C protease recognition site, to a Fc knob into hole. The target protein was expressed in CHO cells (Chinese hamster ovary cells) by Evitria and purified by a protein A derivative-based affinity chromatography followed by preparative size exclusion chromatography (SEC). The material was up-concentrated in PBS pH 7.4 to 0.53 mg/ml and in vitro biotinylated using recombinant BirA. The final material was monomeric on size exclusion and stored in PBS pH 7.4 at the final concentration of 0.26 mg/ml.
as §3, §4

Dog DLL3-NTD = assay: SPR binding to dog DLL3-NTD (Example 11)
Protocol: as §2, with “dog” for “human”, “designed similarly to the human truncated target protein,” for “designed”, “˜0.1-0.2” for “0.26”
as §3, §4

[4] = SPR, immobilized biotinylated target, 1:1 Langmuir, Table 15

Kd (Human DLL3-NTD) [nM]	Koff Human DLL3-NTD (Human DLL3-NTD) [s⁻¹]	Kon Human DLL3-NTD (Human DLL3-NTD) [M⁻¹ s⁻¹]	fold lower affinity (higher KD) for cynomolgus monkey DLL3-ECD than for human DLL3-ECD (Cyno DLL3-ECD; SPR KD comparison)	Kd (Cyno DLL3-ECD; [4]) [nM]	Koff Cyno DLL3-ECD (Cyno DLL3-ECD; [4]) [s⁻¹]	Kon Cyno DLL3-ECD (Cyno DLL3-ECD; [4]) [M⁻¹ s⁻¹]	fold lower affinity for dog DLL3-NTD than for human DLL3-ECD (Dog DLL3-NTD; SPR KD comparison)	Kd (Dog DLL3-NTD; [4]) [nM]	Koff Dog DLL3-NTD (Dog DLL3-NTD; [4]) [s⁻¹]	Kon Dog DLL3-NTD (Dog DLL3-NTD; [4]) [M⁻¹ s⁻¹]	Molecule	internalization [1]	internalization [2]	internalization [3]
											Rova: Rova antibody, DLL3-binding benchmark antibody used as positive control and comparison (antibody, chains of the INN, looked up, V domains shown) VH: QVQLVQSGAEVKKPGASVKVSCKASGYTFTNYGMNWVRQAPGQGLEWMGWINTYTGEPTYADDFKGRVTMTTDTSTSTAYMELRSLRSDDTAVYYCARIGDSSPSDYWGQGTLVTVSS VL: EIVMTQSPATLSVSPGERATLSCKASQSVSNDVVWYQQKPGQAPRLLIYYASNRYTGIPARFSGSGSGTEFTLTISSLQSEDFAVYYCQQDYTSPWTFGQGTKLEIK	internalization	internalization	internalization
0.263	1.54e-05	58700	about 100 fold	22	0.000978	44500	about 10 fold	1.2	5.58e-05	46400	MAM279: Two domain (2D) ankyrin repeat protein: serum albumin-specific domain (SEQ ID NO: 7), PT linker, DLL3-specific domain of MAM093 (protein, Ankyrin repeat protein (MAM279)) DLGKKLLEAARAGQDDEVRELLKAGADVNAKDYFSHTPLHLAARNGHLKIVEVLLKAGADVNAKDFAGKTPLHLAADAGHLEIVEVLLKAGADVNAQDIFGKTPADIAADAGHEDIAEVLQKAAGSPTPTPTTPTPTPTTPTPTPTGSDLGKKLLAAAAQGQDDEVRELLKAGANVNAKDLFGYTPLHLAAWRGHLEIVEVLLKAGADVNAKDAAGETPLHLAAWFGHLEIVEVLLKAGADVNAQDLQGKTPADLAAKEGHEDIAEVLQKAA	similarly internalized	similarly internalized	similarly internalized
	1.99e-05	50400			0.00125	36000			4.86e-05	33400	MAM279-DOTAM: GS-MAM279-tag (SEQ ID NO: 15) conjugated to the chelator DOTAM via C-terminal tag and maleimide connector, no radionuclide (conjugate, DOTAM chelator via maleimide on C-terminal tag; Ankyrin repeat protein with tag (GS-MAM279-tag)) GSDLGKKLLEAARAGQDDEVRELLKAGADVNAKDYFSHTPLHLAARNGHLKIVEVLLKAGADVNAKDFAGKTPLHLAADAGHLEIVEVLLKAGADVNAQDIFGKTPADIAADAGHEDIAEVLQKAAGSPTPTPTTPTPTPTTPTPTPTGSDLGKKLLAAAAQGQDDEVRELLKAGANVNAKDLFGYTPLHLAAWRGHLEIVEVLLKAGADVNAKDAAGETPLHLAAWFGHLEIVEVLLKAGADVNAQDLQGKTPADLAAKEGHEDIAEVLQKAAGSGSC			
